Data from US20250197488A1 (MABWELL SHANGHAI BIOSCIENCE, published 2025).
Blank lines part the entries; values can stand above or below the binder they belong to.

Columns and labels:
[1] = biological target: T1, IL-11 (Cat. 12225-HNCE, Sino Biological Inc.) (UniProt P20809 22-199, limits assumed); experiment: cell-based or functional assay
T1 sequence (looked up): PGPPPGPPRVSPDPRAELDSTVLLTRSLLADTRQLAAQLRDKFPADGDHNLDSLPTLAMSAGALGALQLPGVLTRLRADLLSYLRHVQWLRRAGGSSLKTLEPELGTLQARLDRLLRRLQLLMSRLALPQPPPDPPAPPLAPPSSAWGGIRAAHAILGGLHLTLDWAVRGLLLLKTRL

[2] = biological target: T1, IL-11 (Cat. 12225-HNCE, Sino Biological …); experiment: competition ELISA, IL-11/IL-11Rα/GP130 complex
Protocol: The activity of the recombinant murine anti-IL-11 antibodies for blocking the formation of IL-11/IL-11Rα/GP130 complex was analyzed via competition ELISA. IL-11Rα-His (NP_004503.1, Met1-Val363, C-terminus-6-His Tag) was firstly added into ELISA plates to be coated overnight. Next day, samples were prepared as follows. […] After co-incubating and washing, an HRP conjugated anti-human Fc secondary antibody was added to develop the color which was then detected.
(§1) Then, light and heavy chain expression vectors for preparing mutant antibodies were constructed according to the method for preparing the recombinant antibodies provided in Example 4, using the mutant sequences shown in Table 3 which accordingly were linked with human IgG1 constant regions (SEQ ID NO. 13, and SEQ ID NO.14). Subsequently, the light chain and the heavy chain were reasonably matched and co-transfected into eukaryotic cells for transient expression, and then recombination protein samples of the mutant antibodies were obtained through affinity purification. The samples obtained were tested for affinity on Fortebio Octet, according to the method for measuring affinity provided in Example 1. Further, using the protocol provided in Example 3, hz8C8 and its affinity matured mutants were analyzed for their activity for blocking the formation of IL-11/IL-11Rα/GP130 complex.

[3] = biological target: T2, human IL-11 (AAH12506.1, Pro22-Leu199) (human, UniProt P20809 22-199); experiment: BLI (Octet), antibody captured, human IL-11 in solution
T2 construct: The range Pro22-Leu199 counts on AAH12506.1; The Octet runs say only 'human IL-11'; also called hIL-11
T2 chain: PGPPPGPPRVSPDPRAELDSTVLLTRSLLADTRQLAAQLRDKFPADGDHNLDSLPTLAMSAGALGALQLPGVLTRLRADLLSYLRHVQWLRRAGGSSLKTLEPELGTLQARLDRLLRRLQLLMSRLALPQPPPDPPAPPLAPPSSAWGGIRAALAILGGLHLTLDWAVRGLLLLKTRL
Protocol: The affinity of the murine antibodies purified from the hybridoma supernatants was determined using an Octet QKe System instrument from Fortebio Inc. with an anti-mouse IgG Fc Capture biosensor to capture the Fc fragments of the antibodies, for which an anti-IL-11 antibody named “3C6-mFc” recombinantly expressed was used at the same concentration as a positive control. Specifically, a hybridoma supernatant was diluted with HBS-EP+ buffer (GE), and was allowed to pass through the surface of AMC probes (Cat: 18-5088, PALL), and so the antibody in the hybridoma supernatant was captured on the surface of the probes; then, human IL-11 diluted in the HBS-EP+ buffer (300 nM) was used as a mobile phase to react with the antibody captured on the surface of the probes. Both the binding and the dissociating were conducted for 300 seconds. When the experiment was finished, data from which response values of blank controls had been deducted was fitted using a 1:1 Langmuir binding model by software, and then kinetic constants for antigen-antibody binding were calculated. Binding signals were detected on the Octet QKe System instrument with Hy5C2, Hy8C8, Hy16B5, Hy18A10, and Hy18H10.
The affinity of hz18A10 and hz8C8 was determined according to the method provided in Example 1 using AHC bioprobes for capturing human Fc fragment instead, with other conditions unchanged. A recombinantly expressed anti-IL-11 antibody 3C6-hFc was used at the same concentration as a positive control.
as §1, with “1.” for “1. Further, using the protocol provided in Example 3, hz8C8 and its affinity matured mutants were analyzed for their activity for blocking the formation of IL-11/IL-11Rα/GP130 complex.”

B1: hz8C8-VHm1-m6 + hz8C8-VLm7-m2 (antibody, human IgG1, kappa, V domains shown)
VH: EVQLVESGGGLVQPGGSLRLSCAASGFTFSSFGMHWVRQAPGKGLEWVAVITPGSNTIYYADTVKGRFTISRDNAKNSLYLQMNSLRAEDTAVYYCAREYYSYDEGFAYWGQGTLVTVSS
VL: EIVLTQSPATLSLSPGERATLSCSVSDLIPSQYLHWYQQKPGQAPRLLIYDASNLASGIPARFSGSGSGTDFTLTISSLEPEDFAVYYCQQGVDVPFTFGQGTKLEIKR
notes: human IgG1 constant regions
- Blocking activity (IC50), STAT3-luc reporter [1]: 0.034 µg/mL
- IC50 [2]: 1.71 µg/mL
- Kd [3]: 2.07 nM
- koff [3]: 0.00135 s⁻¹
- kon [3]: 653000 M⁻¹ s⁻¹

B6: hz8C8-VHm1-m12 + hz8C8-VLm7-m2 (antibody, human IgG1, kappa, V domains shown)
VH: EVQLVESGGGLVQPGGSLRLSCAASGFTFSSFGMHWVRQAPGKGLEWVAYITPGSNTIYYADTVKGRFTISRDNAKNSLYLQMNSLRAEDTAVYYCAREYYSYDEGGAYWGQGTLVTVSS
VL: EIVLTQSPATLSLSPGERATLSCSVSDLIPSQYLHWYQQKPGQAPRLLIYDASNLASGIPARFSGSGSGTDFTLTISSLEPEDFAVYYCQQGVDVPFTFGQGTKLEIKR
notes: human IgG1 constant regions
- Blocking activity (IC50), STAT3-luc reporter [1]: 0.012 µg/mL
- IC50 [2]: 1.54 µg/mL
- Kd [3]: 7.95 nM
- koff [3]: 0.00139 s⁻¹
- kon [3]: 175000 M⁻¹ s⁻¹

B8: hz8C8-VHm3 + hz8C8-VL (antibody, human IgG1, kappa, V domains shown)
VH: EVQLVESGGGLVQPGGSLRLSCAASGFTFSSFGMHWVRQAPGKGLEWVAYITPGSNTTYYADTVKGRFTISRDNAKNSLYLQMNSLRAEDTAVYYCAREYYSYDEGFAYWGQGTLVTVSS
VL: EIVLTQSPATLSLSPGERATLSCSVSSSISSNYLHWYQQKPGQAPRLLIYRTSNLASGIPARFSGSGSGTDFTLTISSLEPEDFAVYYCQQGVDVPFTFGQGTKLEIKR
notes: human IgG1 constant regions
- Blocking activity (IC50), STAT3-luc reporter [1]: 0.946 µg/mL
- IC50 [2]: 0.828 µg/mL
- Kd [3]: 4.77 nM
- koff [3]: 0.00216 s⁻¹
- kon [3]: 453000 M⁻¹ s⁻¹

B9: hz8C8-VHm1-m7 + hz8C8-VLm7-m2 (antibody, human IgG1, kappa, V domains shown)
VH: EVQLVESGGGLVQPGGSLRLSCAASGFTFSSFGMHWVRQAPGKGLEWVSVITPGSNTIYYADTVKGRFTISRDNAKNSLYLQMNSLRAEDTAVYYCAREYYSYDEGFAYWGQGTLVTVSS
VL: EIVLTQSPATLSLSPGERATLSCSVSDLIPSQYLHWYQQKPGQAPRLLIYDASNLASGIPARFSGSGSGTDFTLTISSLEPEDFAVYYCQQGVDVPFTFGQGTKLEIKR
notes: human IgG1 constant regions
- Blocking activity (IC50), STAT3-luc reporter [1]: 0.027 µg/mL
- IC50 [2]: 2.14 µg/mL
- Kd [3]: 1.87 nM
- koff [3]: 0.00111 s⁻¹
- kon [3]: 595000 M⁻¹ s⁻¹

B10: hz8C8-VHm1-m10 + hz8C8-VLm7-m2 (antibody, human IgG1, kappa, V domains shown)
VH: EVQLVESGGGLVQPGGSLRLSCAASGFTFSSFGMHWVRQAPGKGLEWVAYITPGSNTIYYADTVKGRFTISRDNAKNSLYLQMNSLRAEDTAVYYCAREYYSSDEGFAYWGQGTLVTVSS
VL: EIVLTQSPATLSLSPGERATLSCSVSDLIPSQYLHWYQQKPGQAPRLLIYDASNLASGIPARFSGSGSGTDFTLTISSLEPEDFAVYYCQQGVDVPFTFGQGTKLEIKR
notes: human IgG1 constant regions
- Blocking activity (IC50), STAT3-luc reporter [1]: 0.008 µg/mL
- IC50 [2]: 1.57 µg/mL
- Kd [3]: 1.39 nM
- koff [3]: 0.000305 s⁻¹
- kon [3]: 219000 M⁻¹ s⁻¹

Next, values leading:

- Blocking activity (IC50), STAT3-luc reporter [1]: 1.54 µg/mL
- IC50 [2]: 1.01 µg/mL
- Kd [3]: 1.37 nM
- koff [3]: 0.0012 s⁻¹
- kon [3]: 878000 M⁻¹ s⁻¹
B2: hz8C8-VHm4 + hz8C8-VL (antibody, human IgG1, kappa, V domains shown)
VH: EVQLVESGGGLVQPGGSLRLSCAASGFTFSSFGMHWVRQAPGKGLEWVAYITSGANTIYYADTVKGRFTISRDNAKNSLYLQMNSLRAEDTAVYYCAREYYSYDEGFAYWGQGTLVTVSS
VL: EIVLTQSPATLSLSPGERATLSCSVSSSISSNYLHWYQQKPGQAPRLLIYRTSNLASGIPARFSGSGSGTDFTLTISSLEPEDFAVYYCQQGVDVPFTFGQGTKLEIKR
notes: human IgG1 constant regions

- Blocking activity (IC50), STAT3-luc reporter [1]: 0.008 µg/mL
- IC50 [2]: 0.54 µg/mL
- Kd [3]: 0.0573 nM
- koff [3]: 4.32e-05 s⁻¹
- kon [3]: 753000 M⁻¹ s⁻¹
B3: hz8C8-VHm1-m13 + hz8C8-VLm7-m2 (antibody, human IgG1, kappa, V domains shown)
VH: EVQLVESGGGLVQPGGSLRLSCAASGFTFSSFGMHWVRQAPGKGLEWVAYITPGSNTIYYADTVKGRFTISRDNAKNSLYLQMNSLRAEDTAVYYCAREYYSYDEGFASWGQGTLVTVSS
VL: EIVLTQSPATLSLSPGERATLSCSVSDLIPSQYLHWYQQKPGQAPRLLIYDASNLASGIPARFSGSGSGTDFTLTISSLEPEDFAVYYCQQGVDVPFTFGQGTKLEIKR
notes: human IgG1 constant regions

- Blocking activity (IC50), STAT3-luc reporter [1]: 0.002 µg/mL
- IC50 [2]: 0.77 µg/mL
- Kd [3]: 0.0239 nM
- koff [3]: 2.14e-05 s⁻¹
- kon [3]: 897000 M⁻¹ s⁻¹
B4: hz8C8-VHm1-m9 + hz8C8-VLm7-m2 (antibody, human IgG1, kappa, V domains shown)
VH: EVQLVESGGGLVQPGGSLRLSCAASGFTFSSFGMHWVRQAPGKGLEWMGYITPGSNTIYYADTVKGRFTISRDNAKNSLYLQMNSLRAEDTAVYYCAREYYSYDEGFAYWGQGTLVTVSS
VL: EIVLTQSPATLSLSPGERATLSCSVSDLIPSQYLHWYQQKPGQAPRLLIYDASNLASGIPARFSGSGSGTDFTLTISSLEPEDFAVYYCQQGVDVPFTFGQGTKLEIKR
notes: human IgG1 constant regions

- Blocking activity (IC50), STAT3-luc reporter [1]: 0.51 µg/mL
- IC50 [2]: 0.694 µg/mL
- Kd [3]: 0.727 nM
- koff [3]: 0.000586 s⁻¹
- kon [3]: 806000 M⁻¹ s⁻¹
B5: hz8C8-VHm2 + hz8C8-VL (antibody, human IgG1, kappa, V domains shown)
VH: EVQLVESGGGLVQPGGSLRLSCAASGFTFSSFGMHWVRQAPGKGLEWVAYITAGSNTIYYADTVKGRFTISRDNAKNSLYLQMNSLRAEDTAVYYCAREYYSYDEGFAYWGQGTLVTVSS
VL: EIVLTQSPATLSLSPGERATLSCSVSSSISSNYLHWYQQKPGQAPRLLIYRTSNLASGIPARFSGSGSGTDFTLTISSLEPEDFAVYYCQQGVDVPFTFGQGTKLEIKR
notes: human IgG1 constant regions

- Blocking activity (IC50), STAT3-luc reporter [1]: 0.01 µg/mL
- IC50 [2]: 1.7 µg/mL
- Kd [3]: 1.3 nM
- koff [3]: 0.001 s⁻¹
- kon [3]: 771000 M⁻¹ s⁻¹
B7: hz8C8-VHm1-m11 + hz8C8-VLm7-m2 (antibody, human IgG1, kappa, V domains shown)
VH: EVQLVESGGGLVQPGGSLRLSCAASGFTFSSFGMHWVRQAPGKGLEWVAYITPGSNTIYYADTVKGRFTISRDNAKNSLYLQMNSLRAEDTAVYYCAREYYSYDEGPAYWGQGTLVTVSS
VL: EIVLTQSPATLSLSPGERATLSCSVSDLIPSQYLHWYQQKPGQAPRLLIYDASNLASGIPARFSGSGSGTDFTLTISSLEPEDFAVYYCQQGVDVPFTFGQGTKLEIKR
notes: human IgG1 constant regions

- Blocking activity (IC50), STAT3-luc reporter [1]: 0.003 µg/mL
- IC50 [2]: 0.57 µg/mL
- Kd [3]: < 0.001 nM
- koff [3]: < 1e-07 s⁻¹
- kon [3]: 847000 M⁻¹ s⁻¹
B11: hz8C8-VHm1-m8 + hz8C8-VLm7-m2 (antibody, human IgG1, kappa, V domains shown)
VH: EVQLVESGGGLVQPGGSLRLSCAASGFTFSSFGMHWVRQAPGKGLEWIGYITPGSNTIYYADTVKGRFTISRDNAKNSLYLQMNSLRAEDTAVYYCAREYYSYDEGFAYWGQGTLVTVSS
VL: EIVLTQSPATLSLSPGERATLSCSVSDLIPSQYLHWYQQKPGQAPRLLIYDASNLASGIPARFSGSGSGTDFTLTISSLEPEDFAVYYCQQGVDVPFTFGQGTKLEIKR
notes: human IgG1 constant regions
